In series [1] the target is T1, Ec-S15 (Escherichia coli, UniProt P0ADZ4 1-89). Briefly: filter binding; 50 mM Tris/acetate pH 7.5, 20 mM Mg-acetate, 270 mM KCl, 5 mM DTT, 0.02% BSA, RNA <1 nM, 30 min at 25 C (thermophile RNAs also at 55 C).
For another series, the target named is Tt-S15 (Thermus thermophilus, UniProt Q5SJ76). The description is as above. Particulars: protein: recombinant, label: 5'-32P.
The next series deals with Rr-S15 (UniProt A0ABD5LGG5 1-89). Described as above. Particulars: protein: recombinant; label: 5'-32P.
Series [2] has as its target T2, Gk-S15 (UniProt Q5L0I3 1-89). The series is described as above. As to conditions: protein: recombinant, label: 5'-32P.
Series [3] addresses T1, Ec-S15. The series can be described thus: filter binding; 5'-32P and 3'-pCp label; 50 mM Tris/acetate pH 7.5, 20 mM Mg-acetate, 270 mM KCl, 5 mM DTT, 0.02% BSA, RNA <1 nM, 30 min at 25 C (thermophile RNAs also at 55 C).
The target of series [4] is T2, Gk-S15. The series can be described thus: filter binding; max fraction bound <20%; 50 mM Tris/acetate pH 7.5, 20 mM Mg-acetate, 270 mM KCl, 5 mM DTT, 0.02% BSA, RNA <1 nM, 30 min at 25 C (thermophile RNAs also at 55 C). Particulars: protein: recombinant; label: 5'-32P.

As usually defined, the Kd is the free concentration of one partner at which half of the binding sites on the other are occupied at equilibrium, for simple one-to-one binding.

Chain of Tt-S15 (Q5SJ76 2-89): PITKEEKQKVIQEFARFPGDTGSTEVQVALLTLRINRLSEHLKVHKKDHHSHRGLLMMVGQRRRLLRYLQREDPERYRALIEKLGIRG
Chain of Rr-S15 (A0ABD5LGG5 entry or part of it): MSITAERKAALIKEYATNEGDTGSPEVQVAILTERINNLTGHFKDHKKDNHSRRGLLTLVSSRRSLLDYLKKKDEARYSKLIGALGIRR

B1: Gk-mRNA M2 (structured_RNA)
RNA: GGUCAAUGUAUGCGAACCAUUCUCCGGCUAGGCGAGUCACCGACGCCCGCUCGGCAAUCGGGGAUCUAGGACUAGGGAGGUGAACAAGGAUGGCAUUGAA
Regarding B1, the binding result with Ec-S15 [1], in the series with Tt-S15 and with Rr-S15 was “no binding” throughout.

B2: Rr-mRNA M1 (structured_RNA)
RNA: GGAUAGGCAGCGCCAGCUUGGGCUUUGCCUAUGCUGCUGAAUGGCCAGAGAAAGACGACAUCCCGGCUCUAGGCGUCCCCGUUUUUCCUUAAAACAAGAAAGGAUCGUACGAUGUCGAUUACUGCAGAGCGCAAAGCC
Regarding B2, the Kd with Tt-S15 stood at 8.8 ± 1.8 nM; in the series with Gk-S15 [2], 11.8 ± 6.9 nM.

B3: Ec-mRNA WT (structured_RNA)
RNA: ACUGGGAUCGCUGAAUUAGAGAUCGGCGUCCUUUCAUUCUAUAUACUUUGGAGUUUUAAAAUGUCUCUAAGUACUGAAGCAACAGCU
On to B3, for which the binding result with Ec-S15 [3] is listed as “no binding”.

B4: Tt-mRNA WT (structured_RNA)
RNA: GGCUUGGCGGGAGACCGCCUCGAGGAGGAAGGGGCUCAAAGCGCCUUCCCGCCUGACGGAGGGAAAACAUGCCCAUCACGAA
In the case of B4, the equilibrium dissociation constant (Kd) with Tt-S15 (three-way junction) was 2.11 ± 0.25 nM; with Gk-S15 [2] (three-way junction), 0.35 ± 0.23 nM.

B5: Tt-mRNA M1 (structured_RNA)
RNA: GGCUUGGCGGGAGACCGCCAAAUGGAGGAAGGGGCUCAAAGCGCCUUCCCGCCUGACGGAGGGAAAACAUGCCCAUCACGAA
Consider B5, for which the Kd with Gk-S15 [4] turned out to be 76.3 ± 5.7 nM.
